Measured values reported in PMC10732536.

Target: Spz, activated cystine-knot domain (Drosophila melanogaster)
Test: non-reducing SDS-PAGE and immunoblot; proSpz cleaved by the activated proteases, in the absence of DTT (fig. S10); anti-Spz C106 antibody

stoichiometry N: 2
Substance: Spz, activated cystine-knot domain (domain or fragment)
